Laboratory results: patent US20050245453A1 (MOUNT SINAI SCHOOL OF MEDICINE OF NEW YORK UNIVERSITY, published 2005)

Target: Presenilin-1 (PS1) (human, UniProt P49768 1-467)
Assay: co-immunoprecipitation with anti-PS1/NTF R222 from transfected A431D cell extracts, Western blot with C36
Procedure: Immunoprecipitations (IPs), immunoblotting, immunofluorescence and confocal microscopy. For WB analysis of cell extracts, cells were washed with PBS and then solubilized in RIPA buffer. For IPs cells were solubilized in Hepes buffer (25 mM Hepes [pH 7.4], 150 mM NaCl, 1× Complete protease inhibitor cocktail, Roche) containing 1% digitonin (IPs with I-R222 and PI-R222 antibodies) or 1% Triton X-100 (IPs with β-catenin and desmoglein antibodies). Following centrifugation at 17,000×g for 10 min, supernatants (1 mg protein) were pre-cleared with protein A- or protein G-agarose (Pierce) for 2 hours. Supernatants were then incubated with antibodies overnight at 4° C. and treated for 2 hours with protein A-agarose (polyclonal antibodies) or with protein G-agarose (monoclonal antibodies). IPs were washed with Hepes buffer containing either 1% digitonin or 1% Triton X-100 and analyzed by SDS-PAGE. Immunofluorescence and confocal microscopy was performed as described by Georgakopoulos et al., (1999). Briefly, cells were plated on 22×22 mm collagen-coated glass coverslips, fixed in cold methanol for 10 min at −20° C. […]

B1: E-cadherin mutant GGG759-761AAA (receptor)
chain: DWVIPPISCPENEKGPFPKNLVQIKSNKDKEGKVFYSITGQGADTPPVGVFIIERETGWLKVTEPLDRERIATYTLFSHAVSSNGNAVEDPMEILITVTDQNDNKPEFTQEVFKGSVMEGALPGTSVMEVTATDADDDVNTYNAAIAYTILSQDPELPDKNMFTINRNTGVISVVTTGLDRESFPTYTLVVQAADLQGEGLSTTATAVITVTDTNDNPPIFNPTTYKGQVPENEANVVITTLKVTDADAPNTPAWEAVYTILNDDGGQFVVTTNPVNNDGILKTAKGLDFEAKQQYILHVAVTNVVPFEVSLTTSTATVTVDVLDVNEAPIFVPPEKRVEVSEDFGVGQEITSYTAQEPDTFMEQKITYRIWRDTANWLEINPDTGAISTRAELDREDFEHVKNSTYTALIIATDNGSPVATGTGTLLLILSDVNDNAPIPEPRTIFFCERNPKPQVINIIDADLPPNTSPFTAELTHGASANWTIQYNDPTQESIILKPKMALEVGDYKINLKLMDNQNKDQVTTLEVSVCDCEGAAGVCRKAQPVEAGLQIPAILGILGGILALLILILLLLLFLRRRAVVKEPLLPPEDDTRDNVYYYDEEAAAEEDQDFDLSQLHRGLDARPEVTRNDVAPTLMSVPRYLPRPANPDEIGNFIDENLKAADTDPTAPPYDSLLVFDYEGSGSEAASLSSLNSSESDKDQDYDYLNEWGNRFKKLADMYGGGEDD
notes: whole, on cells; Numbering on the unprocessed human E-cadherin precursor; Assayed in cell extracts by co-immunoprecipitation; also called mutant E-cadherin
binding result: no binding
